Measured values reported in patent publication US20260116996A1 (REGENTS OF THE UNIVERSITY OF MINNESOTA, published 2026).

Tests used:
[1] = biological target: T1, human serpinB5 (human, UniProt P36952 1-375); assay: Luminex bead assay, beads coated with human serpinB5, background (Gfp and Scgn beads) subtracted
T1 construct: Luminex antigen captured from a 293 cell lysate; not shown: V5-His tag of the pcDNA3.1 Directional V5-His-TOPO vector
T1 sequence (looked up): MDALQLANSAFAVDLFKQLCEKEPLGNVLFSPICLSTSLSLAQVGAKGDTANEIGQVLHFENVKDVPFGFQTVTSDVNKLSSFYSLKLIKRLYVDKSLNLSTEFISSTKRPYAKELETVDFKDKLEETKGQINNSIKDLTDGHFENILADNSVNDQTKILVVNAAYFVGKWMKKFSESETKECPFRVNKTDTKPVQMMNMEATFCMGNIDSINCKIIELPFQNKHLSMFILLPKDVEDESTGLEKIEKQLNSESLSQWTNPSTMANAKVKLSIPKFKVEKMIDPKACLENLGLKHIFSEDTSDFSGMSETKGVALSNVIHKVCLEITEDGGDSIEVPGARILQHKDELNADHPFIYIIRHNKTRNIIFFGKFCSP
Protocol: (§1) The latter was determined as the average antibody binding to Luminex beads coated with Gfp and Scgn control antigens. Similar data were obtained for antigen binding of Fab fragments of these antibodies (data not shown).
(§2) Luminex assay. Luminex-based technology was used to measure serpinB13 AA in human samples. Initially, the Luminex beads were precoated with serpinB13, Gfp and Scgn, using precleared lysates of 293 cells that had been transfected with individual cDNAs. Biotinylated mouse anti-human K and 2 chain mAbs (BD Biosciences) (dilution 1:300) and streptavidin (Invitrogen) (dilution 1:200) were used as secondary reagents to measure human serum binding activity to individual antigens. The data were expressed as fluorescence intensity (F.I.) due to serum binding activity in the presence of beads precoated with serpinB13 and after subtracting the average F.I. due to serum binding activity in the presence of beads precoated with control proteins, Gfp and Scgn (e.g. F.I.^B13-[F.I.^GFP+F.I.^Segn]/2). The samples were evaluated based on the level of F.I. and the degree of inhibition of binding to serpin-B13 coated beads with soluble serpinB13 (2.5 μg/mL), compared with the bovine serum albumin (BSA). […] All samples were run blind on three independent occasions. Subjects with serum samples that produced a positive results three times were considered positive. Subjects with serum samples that produced a negative result on at least one occasion were considered negative.
(§3) To determine whether anti-serpin activity is specific, binding of three human recombinant antibodies to serpinB13 was examined for potential cross-reactivity with other clade B serpins. Binding to the beads conjugated with Gfp and Scgn was used to subtract the background and the assay was developed using the same reagents as those described above for measuring serpinB13 AA in serum samples.

[2] = biological target: T2, human serpinB1 (human, UniProt P30740 1-379); assay: Luminex bead assay, beads coated with human serpinB1, background (Gfp and Scgn beads) subtracted
T2 construct: Luminex antigen captured from a 293 cell lysate; not shown: V5-His tag of the pcDNA3.1 Directional V5-His-TOPO vector
T2 sequence (looked up): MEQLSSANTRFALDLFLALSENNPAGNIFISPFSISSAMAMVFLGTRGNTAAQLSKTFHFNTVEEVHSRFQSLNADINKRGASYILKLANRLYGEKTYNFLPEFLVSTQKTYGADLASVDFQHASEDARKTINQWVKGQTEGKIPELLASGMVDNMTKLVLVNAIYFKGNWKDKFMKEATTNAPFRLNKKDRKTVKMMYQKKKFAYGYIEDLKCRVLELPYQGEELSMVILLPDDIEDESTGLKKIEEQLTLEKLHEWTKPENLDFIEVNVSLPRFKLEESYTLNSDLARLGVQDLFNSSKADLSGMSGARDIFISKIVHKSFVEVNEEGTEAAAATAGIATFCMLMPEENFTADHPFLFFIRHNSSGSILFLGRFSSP
Protocol: as §1, §2, §3

[3] = biological target: T3, human serpinB11 (human, UniProt Q96P15 1-392); assay: Luminex bead assay, beads coated with human serpinB11, background (Gfp and Scgn beads) subtracted
T3 construct: Luminex antigen captured from a 293 cell lysate; not shown: V5-His tag of the pcDNA3.1 Directional V5-His-TOPO vector
T3 sequence (looked up): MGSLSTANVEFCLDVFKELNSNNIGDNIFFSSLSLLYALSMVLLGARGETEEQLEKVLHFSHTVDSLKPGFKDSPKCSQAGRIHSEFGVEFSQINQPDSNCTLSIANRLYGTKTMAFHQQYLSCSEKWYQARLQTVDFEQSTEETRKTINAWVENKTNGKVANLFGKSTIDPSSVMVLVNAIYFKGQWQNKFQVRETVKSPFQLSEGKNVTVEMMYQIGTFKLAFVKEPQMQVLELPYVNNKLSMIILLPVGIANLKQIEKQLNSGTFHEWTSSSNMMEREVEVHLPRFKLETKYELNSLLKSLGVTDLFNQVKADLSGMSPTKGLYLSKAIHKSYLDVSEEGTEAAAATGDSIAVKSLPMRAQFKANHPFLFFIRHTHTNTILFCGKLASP
Protocol: as §1, §2, §3

[4] = biological target: T4, human serpinB12 (human, UniProt Q96P63 1-405); assay: Luminex bead assay, beads coated with human serpinB12, background (Gfp and Scgn beads) subtracted
T4 construct: Luminex antigen captured from a 293 cell lysate; not shown: V5-His tag of the pcDNA3.1 Directional V5-His-TOPO vector
T4 sequence (looked up): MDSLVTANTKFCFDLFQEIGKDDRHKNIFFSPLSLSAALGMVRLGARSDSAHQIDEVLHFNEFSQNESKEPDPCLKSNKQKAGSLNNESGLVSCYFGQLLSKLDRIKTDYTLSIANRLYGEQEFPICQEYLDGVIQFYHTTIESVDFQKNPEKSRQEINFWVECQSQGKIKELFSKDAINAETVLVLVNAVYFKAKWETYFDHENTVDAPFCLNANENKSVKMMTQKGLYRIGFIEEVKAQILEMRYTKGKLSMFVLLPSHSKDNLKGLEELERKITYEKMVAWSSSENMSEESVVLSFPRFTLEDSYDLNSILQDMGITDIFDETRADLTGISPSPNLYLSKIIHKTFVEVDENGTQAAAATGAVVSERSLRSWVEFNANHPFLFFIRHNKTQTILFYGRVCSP
Protocol: as §1, §2, §3

[5] = biological target: T5, human serpinB8 (human, UniProt P50452 1-374); assay: Luminex bead assay, beads coated with human serpinB8, background (Gfp and Scgn beads) subtracted
T5 construct: Luminex antigen captured from a 293 cell lysate; not shown: V5-His tag of the pcDNA3.1 Directional V5-His-TOPO vector
T5 sequence (looked up): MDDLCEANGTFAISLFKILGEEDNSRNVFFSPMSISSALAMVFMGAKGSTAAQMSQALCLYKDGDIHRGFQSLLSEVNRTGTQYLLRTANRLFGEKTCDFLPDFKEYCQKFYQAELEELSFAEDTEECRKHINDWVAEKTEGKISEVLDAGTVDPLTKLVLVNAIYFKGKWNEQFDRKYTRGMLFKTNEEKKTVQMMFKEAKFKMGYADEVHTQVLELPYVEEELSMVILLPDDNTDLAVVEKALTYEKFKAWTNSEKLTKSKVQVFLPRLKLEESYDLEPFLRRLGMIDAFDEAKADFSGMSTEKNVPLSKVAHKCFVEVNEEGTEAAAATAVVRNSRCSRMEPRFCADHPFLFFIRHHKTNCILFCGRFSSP
Protocol: as §1, §2, §3

Measured: binding result

B1: recombinant fully human anti-serpinB13 antibody Clone 3 (antibody, human IgG1, kappa, V domains shown)
VH: QVQLQQWGAGLLKPSETLSLTCAVYGGSFSGYYWSWIRQPPGKGLEWIGEINHSGSTNYNPSLKSRVTISVDTSKNQFSLKLSSVTAADTAVYYCARRYCSGGSCYLVGTGSELDYWGQGTLVTVSS
VL: DIQMTQSPSTLSASVGDRVTITCRASQSISSWLAWYQQKPGKAPKLLIYKASSLEIGVPSRFSGSGYGTEFTLTISSLQPDDFATYYCLQYSTHSTFGQGTRVEIKR
notes: also called mAb3; CLONE3-H(m1) / CLONE3-L(m1)
no binding (tested: 1.0 µg/mL): all assays above

B2: recombinant fully human anti-serpinB13 antibody Clone 2 (antibody, human IgG1, kappa, V domains shown)
VH: QMQLVQSGGGVVRPGGSLRLSCAASGFTFDDYGMSWVRQAPGKGLEWVSGINWNGGSTGYADSVKGRFTISRDNAKNSLYLQMNSLRAEDTALYYCARESSMTTVTTYLLREVGVGLDFDYWGQGTLVTVSS
VL: ETTLTQSPGTLSLSPGERATLSCRASQTVSGSYLAWYQQKPGQPPRLLIYGASSRATGIPDRFSGSGSGTDFTLTISRLEPEDFAVYYCQDYGSSRTFGQGTKVELKR
notes: also called mAb2; CLONE2-H(m1) / CLONE2-L(m1)
no binding (tested: 1.0 µg/mL): all assays above

B3: recombinant fully human anti-serpinB13 antibody Clone 1 (antibody, human IgG1, kappa, V domains shown)
VH: QVQLQESGGGVVQPGRSLRLSCAASGFTFSSYGMHWVRQAPGKGLEWVAVISYDGSNKYYADSVKGRFTISRDNSKNTLYLQMNSLRAEDTAVYYCARDLGAVIAVAGTSTPYNWFDPWGQGTLVTVSS
VL: DVVMTQSPLSLPVTPGEPASISCRSRQSLLHSNGHNYLGWYLQKPGQSPQLLIYLASIRASGIPDRFSGSGSGTDFTLKISRVEAEDVGVYYCMQALQTPYTFGQGTKLEIKR
notes: also called mAb1; mAbs1
no binding (tested: 1.0 µg/mL): all assays above
